In article PMC6887587:

Tests used:
[1] = biological target: FHR4/VHH(T) trifunctional heteromultimer, Clone 2E3 (first single-cell sorting) (human) (UniProt P04003); experiment: SPR; Biacore 3000, CM5 chip; 10 000 RU of purified multimer immobilised by amine coupling; C3b 2.5, 5, 10 and 20 µg/mL injected in HBS-EP (10 mM Hepes pH 7.4, 150 mM NaCl, 3 mM EDTA, 0.05% P20) with 20 mM MgCl2, 5 min at 30 µL/min, 5 min dissociation; 1:1 Langmuir fit
[2] = biological target: FHR4/VHH(T) trifunctional heteromultimer, Clone IA3 (third single-cell sorting) (human); experiment: as above

UniProt P04003, sequence (P04003 whole entry, looked up, one chain of several): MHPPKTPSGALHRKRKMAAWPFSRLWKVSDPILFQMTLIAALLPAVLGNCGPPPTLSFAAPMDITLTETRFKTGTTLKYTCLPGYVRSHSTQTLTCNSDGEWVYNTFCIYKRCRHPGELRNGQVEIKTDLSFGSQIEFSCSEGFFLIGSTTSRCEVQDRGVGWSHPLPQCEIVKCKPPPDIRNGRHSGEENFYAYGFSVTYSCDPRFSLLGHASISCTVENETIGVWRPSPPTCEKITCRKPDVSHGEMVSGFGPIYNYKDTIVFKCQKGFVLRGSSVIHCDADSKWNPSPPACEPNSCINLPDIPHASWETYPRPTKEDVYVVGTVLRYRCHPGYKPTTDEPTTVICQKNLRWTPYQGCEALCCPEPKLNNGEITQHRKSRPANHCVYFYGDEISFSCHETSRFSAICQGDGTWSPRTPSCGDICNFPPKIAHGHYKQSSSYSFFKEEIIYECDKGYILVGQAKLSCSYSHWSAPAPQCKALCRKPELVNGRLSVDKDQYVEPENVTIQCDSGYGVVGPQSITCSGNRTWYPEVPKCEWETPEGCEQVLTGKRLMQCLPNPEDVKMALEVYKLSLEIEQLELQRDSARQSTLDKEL

Ka [1]: 3.65e+06 M⁻¹
Kd [1]: 274 nM
final C3b binding (RU) [1]: 58 RU
maximum C3b binding at 20 µg/mL C3b (RU) [1]: 100 RU
Ka [2]: 4.48e+06 M⁻¹
Kd [2]: 223 nM
final C3b binding (RU) [2]: 78.6 RU
maximum C3b binding at 20 µg/mL C3b (RU) [2]: 136 RU
Substance: C3b (from UniProt P01024 749-1663; P01024 749-1663) (natural protein)
